Measured values reported in patent CN117756939A.

Molecular target: 人源LILRB1 (human LILRB1, on HEK293T-hLILRB1, Jurkat-hLILRB1 or Daudi cells) (human)
Assay: flow cytometry, blocking of PE-HLA-G tetramer (2 μg/mL) binding to HEK293T-hLILRB1 cells

BION-202 (Biond Biologics公司研发的靶向LILRB1人源化IgG4单克隆抗体) (antibody)
IC50: 0.021 µg/mL
